Reference: paper PMC3672139
pKd: −log10 of the molar value.

Target: T1, RB1 (human) (UniProt P06400)
T1 sequence: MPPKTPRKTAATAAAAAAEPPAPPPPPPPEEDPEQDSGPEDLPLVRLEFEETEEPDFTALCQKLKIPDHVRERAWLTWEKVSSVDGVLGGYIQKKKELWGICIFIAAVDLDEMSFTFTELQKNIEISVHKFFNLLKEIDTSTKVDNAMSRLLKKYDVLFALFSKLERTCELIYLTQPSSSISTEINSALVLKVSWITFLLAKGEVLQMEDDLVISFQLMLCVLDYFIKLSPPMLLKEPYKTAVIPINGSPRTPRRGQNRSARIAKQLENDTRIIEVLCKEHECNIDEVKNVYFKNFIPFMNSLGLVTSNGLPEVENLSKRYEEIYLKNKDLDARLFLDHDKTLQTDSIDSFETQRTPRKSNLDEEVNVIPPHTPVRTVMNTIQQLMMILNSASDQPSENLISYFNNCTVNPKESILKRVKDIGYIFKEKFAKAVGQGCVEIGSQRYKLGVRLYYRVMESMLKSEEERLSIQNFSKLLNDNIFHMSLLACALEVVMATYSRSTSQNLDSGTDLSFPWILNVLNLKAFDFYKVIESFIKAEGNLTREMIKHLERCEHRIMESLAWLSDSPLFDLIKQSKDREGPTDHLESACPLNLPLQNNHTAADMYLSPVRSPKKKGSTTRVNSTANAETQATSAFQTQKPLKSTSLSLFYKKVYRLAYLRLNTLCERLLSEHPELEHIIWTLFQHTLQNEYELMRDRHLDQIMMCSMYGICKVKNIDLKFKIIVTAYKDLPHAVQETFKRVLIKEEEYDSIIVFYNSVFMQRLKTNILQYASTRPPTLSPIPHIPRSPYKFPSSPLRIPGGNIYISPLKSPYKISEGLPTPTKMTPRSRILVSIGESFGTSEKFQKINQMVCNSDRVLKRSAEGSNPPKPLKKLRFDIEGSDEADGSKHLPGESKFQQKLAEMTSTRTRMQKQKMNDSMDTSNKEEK
Assay: SPR
Conditions: DNA immobilized; 650 mM NaCl; 10 mM Tris-HCl, 150 mM NaCl, 5 mM KCl, pH 7.4; EMSA room temperature 30 min, 12% PAGE in TBE; SPR 25 C (RB1 SPR with 650 mM NaCl)

How did the pKd turn out when CGGGGGGTTTTGGGCGGC [RB1 G4] was run?
Its pKd is 6.36.
